Measurements taken from patent US20260193363A1.

Experiments:
[1] = target: EGFRvIII on F98npEGFRvIII cells (rat glioma F98 transfected with nonphosphorylated EGFRvIII); assay: flow cytometry, antibodies added at 2 µg/ml, F98-npEGFRvIII cells
[2] = target: EGFR and EGFRvIII on GBM39 cells (patient derived xenograft glioblastoma line); assay: flow cytometry on GBM39 cells, antibody at 0.2 µg/ml
[3] = target: EGFR and EGFRvIII on GBM39 cells (patient derived xenograft glioblastoma line); assay: flow cytometry on GBM39 cells, antibody at 2 µg/ml
[4] = target: EGFR and EGFRvIII on GBM39 cells (patient derived xenograft glioblastoma line); assay: flow cytometry on GBM39 cells, antibody at 20 µg/ml
[5] = target: EGFR loop peptide, His-tagged (EGFRlp-HIS) (human); assay: BLI (Octet Red96), His-tagged antigen on Ni-NTA biosensors, antibody in solution, 30 C
[6] = target: EGFR loop peptide, His-tagged (EGFRlp-HIS) (human); assay: BLI (Octet Red96), His-tagged antigen on Ni-NTA biosensors, conjugate in solution, 30 C

B1: monoclonal antibody 11G3 (antibody, V domains shown)
VH: QVQLKQSGPSLVQPSQSLSITCTVSGFSLTNYGVHWVRQSPGKGLEWLGVMWRGGRTDYNAAFMSRLSITKDNSRSQVFFKMNSLQTDDAAIYYCAKNGPFGNFAGYWGQGTLVTVST
VL: DIVMSQSPSSLPVSVGEKVSLTCKSSRSLLDNQKHYLAWYQQKPGQSPKLLIYWASTRESGVPDRFTGSGSGTEFTLTISSVKAEDLAVYYCQQFYNYPYTFGGGTKLEIK
[1]
  Median : PE-A: 1080

B2: monoclonal antibody 40H3 (antibody, V domains shown)
VH: QVQLKQSGPGLVQPSQSLSITCTVSGFSLTNYGIHWLRQSPGKGLEWLGMMWRGGGTDYNAAFISRLTITKDTSKSQVFFRMNNLQTNDTAIYYCARKGVGMGLGYWGQGTSVTVSS
VL: DIQMTQSPASQSASLGESVTITCLASQTIGTWVAWYQQKPGRSPQLLIYGATNLADGVPSRFSGSGSGTKFSFKISSLQAEDFVSYYCQQLYSNPYTFGGGTKLEIK
[2]
  median fluorescent intensity: 9450
[3]
  median fluorescent intensity: 10700
[4]
  median fluorescent intensity: 8600
[5]
  Kd: 1.11 nM
  koff: 6.07e-05 s⁻¹
  kon: 54900 M⁻¹ s⁻¹

B3: 40H3 MMAE antibody drug conjugate (antibody, V domains shown)
VH: QVQLKQSGPGLVQPSQSLSITCTVSGFSLTNYGIHWLRQSPGKGLEWLGMMWRGGGTDYNAAFISRLTITKDTSKSQVFFRMNNLQTNDTAIYYCARKGVGMGLGYWGQGTSVTVSS
VL: DIQMTQSPASQSASLGESVTITCLASQTIGTWVAWYQQKPGRSPQLLIYGATNLADGVPSRFSGSGSGTKFSFKISSLQAEDFVSYYCQQLYSNPYTFGGGTKLEIK
[6]
  Kd: 0.0846 nM
  koff: 2.24e-05 s⁻¹
  kon: 265000 M⁻¹ s⁻¹

B4: 40H3 DM1 antibody drug conjugate (antibody, V domains shown)
VH: QVQLKQSGPGLVQPSQSLSITCTVSGFSLTNYGIHWLRQSPGKGLEWLGMMWRGGGTDYNAAFISRLTITKDTSKSQVFFRMNNLQTNDTAIYYCARKGVGMGLGYWGQGTSVTVSS
VL: DIQMTQSPASQSASLGESVTITCLASQTIGTWVAWYQQKPGRSPQLLIYGATNLADGVPSRFSGSGSGTKFSFKISSLQAEDFVSYYCQQLYSNPYTFGGGTKLEIK
[6]
  Kd: 0.442 nM
  koff: 8.95e-05 s⁻¹
  kon: 202000 M⁻¹ s⁻¹
